# Article PMC11432317, “Disulfide Bond Engineering of Soluble ACE2 for Thermal Stability Enhancement” (International Journal of Molecular Sciences, 2024)
# Target: T1, receptor binding domain (RBD) of the SARS-CoV-2 spike protein (residues 319-541) (SARS-CoV-2, UniProt P0DTC2 319-541)
# T1 construct: also called spike RBD protein
# Assay: SPR
# Conditions: both partners purified
binder,measurement,value
"I54C/K341C (M2) mutant sACE2-Fc (Fc fusion, also called M2 sACE2-Fc) QSTIEEQAKTFLDKFNHEAEDLFYQSSLASWNYNTNCTEENVQNMNNAGDKWSAFLKEQSTLAQMYPLQEIQNLTVKLQLQALQQNGSSVLSEDKSKRLNTILNTMSTIYSTGKVCNPDNPQECLLLEPGLNEIMANSLDYNERLWAWESWRSEVGKQLRPLYEEYVVLKNEMARANHYEDYGDYWRGDYEVNGVDGYDYSRGQLIEDVEHTFEEIKPLYEHLHAYVRAKLMNAYPSYISPIGCLPAHLLGDMWGRFWTNLYSLTVPFGQKPNIDVTDAMVDQAWDAQRIFKEAEKFFVSVGLPNMTQGFWENSMLTDPGNVQCAVCHPTAWDLGKGDFRILMCTKVTMDDFLTAHNEMGNIQYDMAYAAQPFLLRNGANEGFHEAVGEIMSLSAATPKHLKSIGLLSPDFQEDNETEINFLLKQALTIVGTLPFTYMLEKWRWMVFKGEIPKDQWMKKWWEMKREIVGVVEPVPHDETYCDPASLFHVSNDYSFIRYYTRTLYQFQFQEALCQAAKHEGPLHKCDISNSTEAGQKLFNMLRLGKSEPWTLALENVVGAKNMNVRPLLNYFEPLFTWLKDQNKNSFVGWSTDWSPYAD",Kd,0.0221 µM
